Positions count from the first letter of the chain named.
B1: 8F5 (antibody, V domains shown)
VH: QSVKESEGGLFKPTDTLTLTCTVSGFSLSSYPISWVRQAPGNGLEWIGYITSEYGVAYYATWAESRSTITRNTNLNTVTLKMTSLTAADTATYFCVRENPTYGYAYDAWGPGTLVTVSS
VL: AYDLTQTPASVEAAVGGTVTINCQASESIGNELSWYQQKSGQPPKLLIYQASTLASGVPSRFKGSGSGTDFTLTISDLECADAATYYCAQGFSSSGVENVFGGGTEVVVK
B2: 10C5 (antibody, V domains shown)
VH: QSLEESGGGLVKPTDTLTLTCTVSGFSLSSYGVTWVRQAPGRGLEWIGYITSNYGVSYYASWAKSRSTITRNTNLNTVTLKMTSLTAADTATYFCARENPDYGYAYDAWGPGTLVTVSV
VL: B1 VL with L4M, V11L, G30S, S40P, K45D, Q50Y, D70E, S93G
notes: Rabbit monoclonal; also called Chimeric 10C5; KLK5.10C5 (complex sample)
B3: 2B11 (antibody, V domains shown)
VH: QSVKESEGGLFKPTDTLTLTCTVSGFSLINYGVSWVRQAPGKGLEWIGYIGSAGSTYYATWAKSRATITRNTNLNTVTLKMTSLTAADTATYFCARAAYSAGSADAEDIWGPGTLVTVSS
VL: AYYMTQTPASVEAAVGGTVTIKCQASQSISNYVAWYQQKPGQPPKLLIYRASTLASGVSSRFSGSGSGTEFTLTISDLECADAATYYCHQGYSSSNVDNIFGGGTEVVVK
B4: 9B6 (antibody, V domains shown)
VH: QSVKESEGGLFKPTDNLTLTCTVSGFSLSNYGVTWVRQAPGNGLEYIGFIGSGGSAYYASWAKSRSTITRNTNLNTVTLKMTSLTAADTATYFCARDDVGGGKSLDIWGPGTLVTVSS
VL: NIVMTQTPASVEVAVGGTVVIKCQASQNIGDYLSWYQQKPGQRPKLLIYSASTLASGVPSRFKGSGSGTQFTLTISDLECADAATYYCHQDYTSNDVENTFGGGTEVVVK
B5: 10C8 (antibody, V domains shown)
VH: B4 VH with N30S, T34S, S55F, K103R, L113V
VL: NIVMTQTPASVEVAMGGTVIIKCQASQSISTYLSWYQQKPGQPPKLLIYSASTLASGVSSRFEGSGSGTQFTLTISGVQCADAATYYCHQDYTSNNVDNTFGGGTEVVVK
B6: 9H3 (antibody, V domains shown)
VH: B4 VH with N16T, N30G, T34S, N42K, S83R, D98N, G102D, K103M
VL: DIVMTQTPASVSEPVGGTVTIKCQASQNINNYLSWYQQKPGQPPKQLIYAASTLASGVPSRFKGSGSGTQFTLTISDLECADAATYYCHQDYTSNNVDNTFGGGTEVVVK
B7: 9H5 (antibody, V domains shown)
VH: B4 VH with N30S, T34S, S55F, L113V, S118V
VL: NIVMTQTPASVEAAVGGTVTINCQASQSISSYLSWYQQKSGQRPKLLIFSASTLASGVPSRFTGSGSGTQFTLTISDLQCADAATYYCHQDYTSSNVDNTFGGGTEVVVK
notes: Rabbit monoclonal; also called Chimeric 9H5; KLK5.9H5 (complex sample)
B8: 9F2 (antibody, V domains shown)
VH: B4 VH with N30S, T34S, A56P
VL: B4 VL with V20I, N28S, G30S, D31N, Q37H, P40S, K45R, D96S, E98D
B9: 8B7 (antibody, V domains shown)
VH: B4 VH with G53S
VL: B4 VL with V20T, N28S, D31S, R43P, S50D, T53N, T74S, D96N, E98D, V109I

Each binder was assayed against human KLK7 (human, UniProt P49862 30-253, limits assumed) (assay: column 6: KLK7 activity assay, 5 nM KLK7).
Procedure: KLK7 selectivity assay was performed at room temperature in a 384-well plate (black, low-volume round bottom, Corning #4514) with a final reaction volume of 15 μL. Inhibitor samples were diluted to 3× final concentration in assay buffer (75 mM Tris, pH 8.0, 150 mM NaCl, 0.01% TWEEN® 20). Reactions lacking inhibitor and reactions lacking enzyme were used as 100% and 0% activity controls, respectively. Inhibitor or control samples (5 μL) were added to the plate followed by 5 μL KLK7 (Genentech) in assay buffer at a final concentration of 5 nM. After 30 min, 5 μL of Suc-Leu-Leu-Val-Tyr-AMC (Bachem I-1395, 25 mM stock solution in water) in assay buffer was added at a final concentration of 100 μM. […] Reaction rates (expressed as RFU/s) were calculated by linear regression in the range 2040-4488 seconds. Reaction rates were normalized to the values of the 0% and 100% activity controls and fit with a 4-parameter equation to calculate IC₅₀ values. […]

Sequence of human KLK7 (P49862 30-253 limits assumed): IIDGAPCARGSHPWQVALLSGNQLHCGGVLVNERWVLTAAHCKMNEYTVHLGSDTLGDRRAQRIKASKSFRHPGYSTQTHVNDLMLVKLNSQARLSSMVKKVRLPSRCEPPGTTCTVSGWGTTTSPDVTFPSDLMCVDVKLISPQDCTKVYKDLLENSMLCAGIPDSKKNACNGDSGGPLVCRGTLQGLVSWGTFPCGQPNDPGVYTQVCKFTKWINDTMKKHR

| IC50 [nM] | Binder |
| --- | --- |
| > 100 | B1 |
| > 100 | B2 |
| > 100 | B3 |
| > 100 | B4 |
| > 100 | B5 |
| > 100 | B6 |
| > 100 | B7 |
| > 100 | B8 |
| > 100 | B9 |

These binders were tested against human KLK1 (human, UniProt P06870 25-262, limits assumed) (assay: column 7: KLK1 activity assay, 3 nM KLK1).
Sequence of human KLK1 (P06870 25-262 limits assumed): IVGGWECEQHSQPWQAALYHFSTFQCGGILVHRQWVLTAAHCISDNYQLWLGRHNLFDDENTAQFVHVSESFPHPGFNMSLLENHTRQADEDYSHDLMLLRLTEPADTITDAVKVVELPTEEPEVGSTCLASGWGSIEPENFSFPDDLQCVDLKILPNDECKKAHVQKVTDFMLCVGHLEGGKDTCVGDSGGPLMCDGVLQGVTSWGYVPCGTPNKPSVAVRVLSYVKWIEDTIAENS

| IC50 [nM] | Binder |
| --- | --- |
| > 100 | B1 |
| > 100 | B2 |
| > 100 | B3 |
| > 100 | B4 |
| > 100 | B5 |
| > 100 | B6 |
| > 100 | B7 |
| > 100 | B8 |
| > 100 | B9 |

What follows are binders tested against T1, trypsin isolated from bovine pancreas (bovine, UniProt P00760 24-246) (assay: column 9: trypsin activity assay, 0.25 nM trypsin).
T1 construct: also called bovine trypsin
Procedure: 0.25 nM trypsin isolated from bovine pancreas and 0.19-100 nM anti-KLK5 inhibitors were pre-incubated for 30 minutes prior to addition of 50 μM Boc-VPR-AMC. […] The results for the KLK5 inhibitors are depicted as follows: FIG. 9A: Spink9.SRE.Fc, FIG. 9B: mAb1108, FIG. 9C: 3-3F5, FIG. 9D: 10C8, FIG. 9E: 9B6, FIG. 9F: 9F2, FIG. 9G: 9H3, FIG. 9H: 9H5, FIG. 9I: 8B7, FIG. 9J: 2B11, FIG. 9K: 8F5, FIG. 9L: 10C5, FIG. 9M: 10H3 and FIG. 9N: 2-3F4.
(§1) Trypsin selectivity assay was performed at room temperature in a 384-well plate (black, low-volume round bottom, Corning #4514) with a final reaction volume of 15 μL. Inhibitor samples were diluted to 3× final concentration in assay buffer (75 mM Tris, pH 8.0, 150 mM NaCl, 0.01% TWEEN® 20). Reactions lacking inhibitor and reactions lacking enzyme were used as 100% and 0% activity controls, respectively. Inhibitor or control samples (5 μL) were added to the plate followed by 5 μL trypsin (Sigma Aldrich T8003, Lot SLBM2321V, 42.0 μM stock solution in 1 mM HCl) in assay buffer at a final concentration of 0.25 nM. After 30 minutes, 5 μL of Boc-Val-Pro-Arg-AMC (Bachem I-1120, 31.3 mM stock solution in water) in assay buffer was added at a final concentration of 50 μM. […] Reaction rates (expressed as RFU/s) were calculated by linear regression in the range 204-3570 seconds. Reaction rates were normalized to the values of the 0% and 100% activity controls and fit with a 4-parameter equation to calculate IC₅₀ values. In the case of bivalent inhibitors, the raw IC₅₀ value was multiplied by two.

T1 sequence (P00760 24-246): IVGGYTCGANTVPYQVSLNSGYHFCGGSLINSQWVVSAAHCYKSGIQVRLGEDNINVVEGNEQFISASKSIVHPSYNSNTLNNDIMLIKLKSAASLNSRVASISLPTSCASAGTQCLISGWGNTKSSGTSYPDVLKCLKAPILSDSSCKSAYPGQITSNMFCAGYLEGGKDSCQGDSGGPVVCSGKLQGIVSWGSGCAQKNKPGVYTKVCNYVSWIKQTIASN

| IC50 [nM] | Binder |
| --- | --- |
| > 100 | B1 |
| > 100 | B2 |
| > 100 | B3 |
| > 100 | B4 |
| > 100 | B5 |
| > 100 | B6 |
| > 100 | B7 |
| > 100 | B8 |
| > 100 | B9 |

The binders below were run against human KLK4 (human, UniProt Q9Y5K2 31-254, limits assumed) (assay: column 8: KLK4 activity assay, 2 nM KLK4).
Procedure: as §1, with “KLK4” for “Trypsin”, “KLK4 (R&D Systems, 1719-SE,” for “trypsin (Sigma Aldrich T8003,”, “MSY0116011, activated according to R&D systems protocol)” for “SLBM2321V, 42.0 μM stock solution in 1 mM HCl)”, “2” for “0.25”, “510-3570” for “204-3570”
In FIG. 8, the ability of Spink9.SRE.Fc, mAb1108 or 12 selected anti-KLK5 antibodies to inhibit the proteolysis of the substrate, Boc-VPR-AMC, by human KLK4 was assessed using an enzymatic assay. […] The results were expressed as a percentage of maximum KLK4 activity (% control).

Sequence of human KLK4 (Q9Y5K2 31-254 limits assumed): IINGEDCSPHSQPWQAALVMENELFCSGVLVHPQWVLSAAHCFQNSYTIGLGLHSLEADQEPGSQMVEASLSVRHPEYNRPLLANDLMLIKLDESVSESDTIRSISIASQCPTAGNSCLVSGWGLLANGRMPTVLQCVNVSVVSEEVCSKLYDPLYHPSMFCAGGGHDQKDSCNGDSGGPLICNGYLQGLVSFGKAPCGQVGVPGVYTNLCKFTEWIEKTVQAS

| IC50 [nM] | Binder |
| --- | --- |
| > 100 | B1 |
| > 100 | B2 |
| > 100 | B3 |
| > 100 | B4 |
| > 100 | B5 |
| > 100 | B6 |
| > 100 | B7 |
| > 100 | B8 |
| > 100 | B9 |

— patent publication US20200040103A1 (Genentech, published 2020)
